The target in assay [1] is CM12 (influenza A virus). Description: ELISA, peptide coated, antibody 10 µg/ml. On the technique in general: ELISA stands for enzyme-linked immunosorbent assay.
Assay [2] concerns the target CM13 (influenza A virus). Kind of assay: ELISA, peptide coated, antibody 10 µg/ml.
Assay [3] concerns the target CM14 (influenza A virus). Description: ELISA, peptide coated, antibody 10 µg/ml.
The target of assay [4] is CM15 (influenza A virus). Description: ELISA, peptide coated, antibody 10 µg/ml.
Assay [5] concerns the target CM16 (influenza A virus). Kind of assay: ELISA, peptide coated, antibody 10 µg/ml.
Assay [6] concerns the target CM17 (influenza A virus). Description: ELISA, peptide coated, antibody 10 µg/ml.
The target in assay [7] is M12 (influenza A virus). Kind of assay: ELISA, peptide coated, antibody 10 µg/ml.
For assay [8], the target named is NM12 (influenza A virus). Description: ELISA, peptide coated, antibody 10 µg/ml.
The target of assay [9] is NM13 (influenza A virus). Description: ELISA, peptide coated, antibody 10 µg/ml.
Assay [10] addresses NM14 (influenza A virus). Kind of assay: ELISA, peptide coated, antibody 10 µg/ml.
Assay [11] has as its target M2 expressed on A/HK/8/68 infected MDCK cells (influenza A virus A/HK/8/68). Kind of assay: cell-based ELISA, infected MDCK cells.
The target in assay [12] is M2 peptide (extracellular 23-amino-acid M2 peptide) (influenza A virus). Kind of assay: ELISA, peptide coated, antibody 10 µg/ml.
Assay [13] addresses NM11 (influenza A virus). Description: ELISA, peptide coated, antibody 10 µg/ml.
Assay [14] concerns the target NM16 (influenza A virus). Kind of assay: ELISA, peptide coated, antibody 10 µg/ml.
The target in assay [15] is NM17 (influenza A virus). Kind of assay: ELISA, peptide coated, antibody 10 µg/ml.

Broadly, the EC50 is the midpoint of the concentration-response curve. A high value points to weaker potency.

B1: C40G1 (antibody, V domains shown)
VH: QLQLQESGPGLVKPSETLSLTCTVSGGSISSSFYYCGWIRQPPGKGLEWIGSIYYRGSTYYNPSLKSRVTISVDTSKNQFSLKLSSVTAADTAVYYCARRVTMVRGVKGDYFDYWGQGTLVTVSS
VL: DIQMTQSPSSLSASVGDRVTITCRASQGISSWLAWYQQKPEKVPKSLIYAASSLQSGVPSRFSGSGSGTDFTLTISSLQPEDFATYYCQQYNYYPLTFGGGTKVEIKR
For the molecule B1, the ELISA (OD450) was determined as 0.1 OD450 in assay [1]; 0.11 OD450 in assay [2]; 0.1 OD450 in [3]; 0.11 OD450 in assay [4]; 0.76 OD450 in assay [5]; 2.78 OD450 in assay [6]. Further, the ELISA (OD450) in [7] was 2.71 OD450; in assay [8], 0.12 OD450; in assay [9] it was 2.41 OD450; in assay [10], 2.49 OD450.

B2: L66 (antibody, V domains shown)
VH: EVQLVESGGGVVRPGGSLRLSCAASGFTFDDYGMSWVRQAPGKGLEWVSGINWNGGSTGYADSVKGRFTISRDNAKNSLYLQMNSLRAEDTALYYCARDRVTMVRGVIMDYYGMDVWGQGTTVTVSS
VL: QTVVTQEPSLTVSPRGTVTLTCSSSTGAVTSGYYPGWFQLKPGQAPMSLIYSARKKHSWTPARFSGSLLGGKAALTLSGVQPEDEAEYYCLLYYGGAYVFGTGTKVTVLG
On to B2, for which the EC50 in assay [11] was determined as 0.229 µg/mL. Besides, the ELISA (OD450) in assay [1] turned out to be 0.08 OD450; in assay [2], 0.08 OD450; in assay [3], 0.08 OD450; in assay [4], 0.09 OD450; in assay [5], 0.09 OD450; in [6], 0.12 OD450. The ELISA (OD450) in [12] was 0.51 OD450; in assay [13], 0.09 OD450; in assay [8], 0.12 OD450; in assay [9], 0.13 OD450; in [14] it was 1.04 OD450; in assay [15] it was 0.99 OD450.

The values above are taken from patent US20050170334A1.
